Experimental data published in US20050244864A1, “Development and use of fluorescent probes of unbound analytes” (priority 2004, published 2005).
Where a chain is given by its changes, count along the chain named. Numbers in names are those of the source. Read-outs that look alike come from different tables or passages of the source.

B1: L2P12 G9: acrylodan-labeled rI-FABP-L72A mutein: M18 L, G31 WT, F55 WT, A73 V (protein, UniProt P02693 2-132, looked up, variant M18L L72A A73V)
Fatty acid-binding protein, …: AFDGTWKVDRNENYEKFLEKMGINVVKRKLGAHDNLKLTITQEGNKFTVKESSNFRNIDVVFELGVDFAYSAVDGTELTGTWTMEGNKLVGKFKRVDNGKELIAVREISGNELIQTYTYEGVEAKRIFKKE
modifications: acrylodan label
notes: acrylodan-labeled rI-FABP-L72A mutein: M18 L, G31 WT, F55 WT, A73 V
B2: L2P21 C1: acrylodan-labeled rI-FABP-L72A mutein: M18 I, G31 Y, F55 WT, A73 V (protein, UniProt P02693 2-132, looked up, variant M18I G31Y L72A A73V)
Fatty acid-binding protein, …: B1 Fatty acid-binding protein, … with L18I, G31Y
modifications: acrylodan label
notes: acrylodan-labeled rI-FABP-L72A mutein: M18 I, G31 Y, F55 WT, A73 V
B3: L2P14F7: UCB probe from rI-FABP-L72A; mutations 18G 31 M 72A (protein, UniProt P02693 2-132, looked up, variant M18G G31M L72A)
Fatty acid-binding protein, …: B1 Fatty acid-binding protein, … with L18G, G31M, V73A
modifications: fluorescent label
notes: UCB probe from rI-FABP-L72A; mutations 18G 31 M 72A
B4: L2P22 B1: UCB-responsive probe from rI-FABP-L72A; mutations 18Y 31V 55V 72A (protein, UniProt P02693 2-132, looked up, variant M18Y G31V F55V L72A)
Fatty acid-binding protein, …: B1 Fatty acid-binding protein, … with L18Y, G31V, F55V, V73A
B5: L5P16 H4: UCB-responsive probe from rI-FABP-L72A; mutations 126K 73F 72A (protein, UniProt P02693 2-132, looked up, variant L72A A73F R126K)
Fatty acid-binding protein, …: B1 Fatty acid-binding protein, … with L18M, V73F, R126K
modifications: acrylodan label
notes: UCB-responsive probe from rI-FABP-L72A; mutations 126K 73F 72A

Columns and labels:
[1] = Probe fluorescence ratio response to stearate:BSA complex, relative to ADIFAB2 (ΔR/ΔRAD2); format: binding
[2] = Probe fluorescence ratio response to oleate:BSA complex, relative to ADIFAB2 (ΔR/ΔRAD2); format: binding; conditions: fluorescence response (R-Ro) relative to ADIFAB2, oleate
How it was run: (§1)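 Mutant probes were screened against fatty acid:BSA complexes made by adding fatty acid sodium salts at pH 11 to BSA in HEPES, titrated until ADIFAB2 gave ΔR ≈0.4 ([FFAu] 100–1000 nM). Wells held 6 μM BSA; excitation 375 nm, emission 550/457 nm, background-subtracted.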

[3] = Probe fluorescence ratio response to palmitoleate:BSA complex, relative to ADIFAB2 (ΔR/ΔRAD2); format: binding
[4] = Mutant probe screening: baseline fluorescence ratio Ro and fatty acid response phenotype; format: binding; conditions: 7 FFA: AA, LNA, LA, OA, PA, POA, SA
Description: The intensity ratio (“R” value) for a given probe is determined. The ratio is calculated using the following formula: R=Fλ1/Fλ2 wherein, Fλ1, is the measured fluorescence intensities (intensity of sample with probe present minus intensity of sample without probe present) at wavelength 1 and Fλ2 is the measured fluorescence intensities (intensity of sample with probe present minus intensity of sample without probe present) at wavelength 2. Then, for a given probe, ΔR, the difference in R value between the measurement in the presence of the analyte and in the absence of the analyte, is calculated as follows: ΔR=R+analyte−R0 The ΔR value for a given probe is then compared to a reference probe, for example, ADIFAB or ADIFAB2, by ΔR/ΔRreference. […] Measurements of fluorescence intensities are obtained using standard techniques.
Plates were prepared and read in two stages. […] The background fluorescence was then measured at the same wavelengths as used for ADIFAB2 using a Fluorolog-3 spectrofluorometer with an external Micromax 384 fluorescence plate reader (Jobin Yvon). In the second stage, 30 μL aliquots of the mutant probes were added to multiple wells of the plate, one for each fatty acid and one with fatty acid free BSA only, and the fluorescence intensity at each wavelength was again measured on the plate reader. […]

[5] = Probe fluorescence ratio response to palmitate:BSA complex, relative to ADIFAB2 (ΔR/ΔRAD2); format: binding; conditions: fluorescence response (R-Ro) relative to ADIFAB2, palmitate
How it was run: as §1

[6] = Probe fluorescence ratio response to arachidonate:BSA complex, relative to ADIFAB2 (ΔR/ΔRAD2); format: binding; conditions: fluorescence response (R-Ro) relative to ADIFAB2, arachidonate
How it was run: as §1

[7] = Probe fluorescence ratio response to linoleate:BSA complex, relative to ADIFAB2 (ΔR/ΔRAD2); format: binding; conditions: fluorescence response (R-Ro) relative to ADIFAB2, linoleate
How it was run: as §1

[8] = Probe fluorescence ratio response to linolenate:BSA complex, relative to ADIFAB2 (ΔR/ΔRAD2); format: binding; conditions: fluorescence response (R-Ro) relative to ADIFAB2, linolenate
How it was run: as §1

[9] = Titration of UCB and probe mixture with sodium oleate; format: binding; conditions: mixture of 0.5 μM UCB and 1 μM probe; after 1 μM total oleate added (FIG. 4)
Description: (§2) Larger preparations of select probes were prepared for quantitative determination of binding affinities. Binding isothermns were performed by measuring the fluorescence intensity for 1 μM of a given probe as the probe was titrated with known quantities of UCB. […] Table 3 lists the Kd values and mutations for some example probes. […] This property was confirmed by titration of a mixture of 0.5 μM UCB and 1 μM L2P14F7 with sodium oleate. […] Oleic acid is the most abundant FFA in serum, and measurements of normal serum samples indicate that typical unbound concentrations of oleic acid are less than 1 nM. By using non-responsive probes from FFA screening to conduct a secondary screening with other unbound analytes, a UCB-sensitive probe that has a negligible response to the major FFA in blood has been generated from a rI-FABP-L72A mutant.

[10] = Binding isotherm: probe titrated with UCB, Kd
Description: as §2

[11] = Probe response to plasma samples from healthy adult donors, with and without 5 μM UCB
Description: The response of L2P14F7 to plasma samples from healthy adult donors, for which the UCBu concentration is expected to be about 1 nM or less, was measured (FIG. 5). Samples were diluted to 1% by volume in pH 7.4 HEPES buffer.

[12] = Screening of FFA-insensitive probes for response to UCB:BSA complexes (ΔI/Io); format: binding; conditions: fractional change in fluorescence intensity; for ΔI/Io 1:1 UCB:BSA 440 nm / ΔI/Io 1:1 UCB:BSA 500 nm: UCB:BSA 1:1; for ΔI/Io 1:1 UCB:BSA 440 nm / ΔI/Io 1:2 UCB:BSA 440 nm: emission 440 nm; for ΔI/Io 1:1 UCB:BSA 500 nm / ΔI/Io 1:2 UCB:BSA 500 nm: emission 500 nm; for ΔI/Io 1:2 UCB:BSA 440 nm / ΔI/Io 1:2 UCB:BSA 500 nm: UCB:BSA 1:2
Description: A probe for unbound unconjugated bilirubin (UCBu) was developed and used to measure concentrations of UCBu in plasma spiked with a defined quantity of unconjugated bilirubin (UCB). Using 384-well plates, 335 mutant probes that were insensitive to FFA were screened for their response to UCB:BSA complexes at UCB:BSA ratios of 1:1 and 1:2 in aqueous buffer. All probes were prepared from rI-FABP-L72A with 1 to 5 mutations. Screening was conducted by comparing the fractional change in fluorescence intensity (ΔI/Io, where ΔI is the difference in probe intensity in the presence and absence of UCB and Io is the intensity in the absence of UCB) for the probes with that for ADIFAB2. This value was calculated for two emission wavelengths: 440 and 500 nm. […] The emitted fluorescence of these probes is quenched by binding of UCB.

[13] = fluorescence response (R-Ro) relative to ADIFAB2
[14] = fluorescence response (R-Ro) relative to ADIFAB2, listed as L2P12G9
[15] = fluorescence response (R-Ro) relative to ADIFAB2, listed as L2P21C1
[16] = UCB, at 22° C., read-out: Kd (nM) at 22° C.

Row | Molecule | ΔR/ΔRAD2 SA [1, 13] | ΔR/ΔRAD2 OA [2] | ΔR/ΔRAD2 POA [3, 13] | phenotype (fatty acid response) relative to ADIFAB2 [4] | ΔR/ΔRAD2 PA [5] | ΔR/ΔRAD2 AA [6] | ΔR/ΔRAD2 LA [7] | ΔR/ΔRAD2 LNA [8] | ΔI/Io 1:1 UCB:BSA 440 nm [12] | ΔI/Io 1:1 UCB:BSA 500 nm [12] | ΔI/Io 1:2 UCB:BSA 440 nm [12] | ΔI/Io 1:2 UCB:BSA 500 nm [12] | Kd [10, 16] [nM] | further results
1 | B1 | 0.48 | 0.07 | −0.01 | response only for AA and SA | 0.03 | 0.54 | −0.07 | 0.01 | – | – | – | – | – | ΔR/ΔRAD2 SA [1, 14]: 0.4; ΔR/ΔRAD2 OA ([2]; listed as L2P12G9): 0.0; ΔR/ΔRAD2 POA [3, 14]: 0.0; ΔR/ΔRAD2 PA ([5]; listed as L2P12G9): 0.0; ΔR/ΔRAD2 AA ([6]; listed as L2P12G9): 0.5; ΔR/ΔRAD2 LA ([7]; listed as L2P12G9): −0.1; ΔR/ΔRAD2 LNA ([8]; listed as L2P12G9): 0.0
2 | B2 | 2.02 | 3.20 | 3.52 | greater response for all 7 FFA | 2.54 | 3.27 | 4.04 | 3.73 | – | – | – | – | – | ΔR/ΔRAD2 SA [1, 15]: 1.6; ΔR/ΔRAD2 OA ([2]; listed as L2P21C1): 2.7; ΔR/ΔRAD2 POA [3, 15]: 2.9; ΔR/ΔRAD2 PA ([5]; listed as L2P21C1): 2.0; ΔR/ΔRAD2 AA ([6]; listed as L2P21C1): 2.8; ΔR/ΔRAD2 LA ([7]; listed as L2P21C1): 3.4; ΔR/ΔRAD2 LNA ([8]; listed as L2P21C1): 3.1
3 | B3 | – | – | – | – | – | – | – | – | – | – | – | – | – | response on titration with sodium oleate [9]: no change in response; Kd ([10]; non-linear fit to binding isotherm, 1 μM probe titrated with UCB (FIG. 3), read-out: Kd): 150 nM; response to plasma samples ([11]; healthy adult donors, samples diluted to 1% by volume in pH 7.4 HEPES buffer): Little to no response; probe fluorescence after spiking plasma samples with UCB ([11]; samples A and B spiked with 5 μM UCB): substantial decrease in the fluorescence
4 | B4 | – | – | – | – | – | – | – | – | −0.70 | −0.68 | −0.36 | −0.35 | 550 | –
5 | B5 | – | – | – | – | – | – | – | – | −0.69 | −0.64 | −0.37 | −0.31 | 390 | –
